Data as given in patent publication US20250223353A1 (BIOTHEUS, published 2025).

What was measured:
Experiment in all cases: BLI (ForteBio), PVRIG-Fc on AHQ sensor, 100 nM Fab in solution, monovalent, 1:1 model
mouse PVRIG-Fc protein = biological target: T1, mouse PVRIG-Fc protein (mouse)
T1 construct: not shown: Fc part
T1 chain: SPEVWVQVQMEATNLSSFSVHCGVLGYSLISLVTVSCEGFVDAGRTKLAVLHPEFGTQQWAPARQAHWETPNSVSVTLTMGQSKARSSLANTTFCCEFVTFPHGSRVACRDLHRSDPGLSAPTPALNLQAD
Method: (§1) Biofilm layer optical interference technology (ForteBio) was used to determine the binding and dissociation rate constant (KD) values of the antibodies and their variants or Fab fragments obtained in Example 1 to human, cynomolgus monkey and mouse PVRIG. ForteBio affinity measurement was performed according to existing methods (Este, P et al., High throughput solution-based measurement of antibody-antigen affinity and epitope binning. Mabs, 2013.5 (2): p270-8).
(§2) The antigen-loaded sensor was incubated in 100 nM Fab solution to the plateau phase, and then the sensor was transferred to an analysis buffer and incubated for at least 2 minutes for measuring dissociation rate. The kinetic analysis was performed using a 1:1 binding model.

human PVRIG-Fc protein = biological target: T2, human PVRIG-Fc protein (human, UniProt Q6DKI7 41-171)
T2 construct: also called PVRIG-Fc antigen (human); not shown: Fc part
T2 sequence: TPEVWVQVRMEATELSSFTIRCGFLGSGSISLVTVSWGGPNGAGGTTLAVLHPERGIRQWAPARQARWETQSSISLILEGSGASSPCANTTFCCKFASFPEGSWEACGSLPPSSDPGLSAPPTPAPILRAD
Method: as §1, §2

[1] = biological target: T3, cynomolgus monkey PVRIG-Fc protein (cynomolgus monkey, UniProt Q6DKI7 41-171 (human entry), limits assumed)
T3 construct: also called cynomolgus PVRIG-Fc protein; not shown: Fc part
T3 chain: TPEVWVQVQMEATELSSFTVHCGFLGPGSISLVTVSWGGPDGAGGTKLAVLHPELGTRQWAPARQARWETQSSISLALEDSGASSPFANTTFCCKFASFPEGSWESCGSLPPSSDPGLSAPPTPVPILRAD
Method: as §1, §2

Kd (mouse PVRIG-Fc protein): 114000 pM
Kd (human PVRIG-Fc protein): 61 pM
Kd [1]: 128 pM
B1: ADI-56127 Fab fragment (Fab, V domains shown)
VH: QVQLVQSGAEVKKPGSSVKVSCKASGGTESVDAISWVRQAPGQGLEWMGDIIPFFDTDYAQKFQGRVTITADESTSTAYMELSSLRSEDTAVYYCAREGGTSWTHFFDLWGRGTLVTVSS
VL: not shown
notes: Fab made by papain digestion of the yeast full-length IgG, purified with Kappa Select
